Sequences and labels used below:
B1: VCP^WT-sfGFP (Drosophila VCP tagged with sfGFP at the endogenous locus) [Drosophila] / wild-type VCP (endogenous, untagged, Drosophila) [Drosophila (endogenous in flies)] (parent)
chain 1: MADSKGEDLATAILKRKDRPNRLIVEEAQNDDNSVVSLSQAKMDELQLFRGDTVILKGKRRKETVCIVLSDDTCPDEKIRMNRVVRNNLCVHLSDVVSVQSCPDVKYGKRVRILPIDESTEGVTGNLFEIYLKPYFLEAYRPIHMGDNFIVRAAMRPIEFKVVLTDPEPYCIVAPETVIFCDGDPIKREEEEESLNAVGYDDIGGCRKQLAQIKEMVELPLRHPSLFKAIGVKPPRGILMYGPPGTGKTLIARAVANETGAFFFLINGPEIMSKLAGESESNLRKAFEEAEKNSPAIIFIDEIDAIAPKRDKTHGEVERRIVSQLLTLMDGMKKSSHLIVMAATNRPNSIDPALRRFGRFDREIDIGIPDATGRLEVLRIHTKNMKLHDDVDLEQIAAESHGHVGADLASLCSEAALQQIREKMDLIDLEDDKIDAEVLASLAVTMENFRYAMTKSSPSALRETVVEVPNTTWTDIGGLESVKKELQELVQYPVEHPDKFLKFGMQPSRGVLFYGPPGCGKTLLAKAIANECQANFISVKGPELLTMWFGESEANVRDIFDKARSAAPCVLFFDELDSIAKARGGNVGDAGGAADRVINQILTEMDGMGAKKNVFIIGATNRPDIIDPAILRPGRLDQLIYIPLPDDKSREAILKANLRKSPLAKEVDLTYIAKVTQGFSGADLTEICQRACKLAIRQAIEAEIRREKERAENQNSAMDMDEDDPVPEITSAHFEEAMKFARRSVSDNDIRKYEMFAQTLQQSRGFGQNFRFPGQTGNTSGSGNNLPVNSPGDNGDDDLYS
chain 2: B1 chain 1

In the assay the parent is B1. Kind of assay: co-immunoprecipitation (IP: GFP, IB: VCP), band quantification. Particulars: with wild-type VCP (endogenous, untagged, Drosophila) [Drosophila (endogenous in flies)]; heterozygous flies; n = 3 independent experiments; read off a plot.
Take chain 1 P134L: the response was 0.93.

The values above are taken from PMC7820495.
